Source: US20160053242A1, “THERMOSTABLE NUCLEASE” (priority 2013, published 2016)

How the values were obtained:
[1] = Active two-dimensional gel electrophoresis (isoelectric point); format: physicochemical; conditions: partially purified crude extracts of CCRI-10035 heated at 80° C. for 1 h; 2D gel
Protocol: Protein concentration was measured by the method of Bradford. An 18 cm Immobiline™ pH 4-7 DryStrip was applied. Proteins (200 μg) were diluted in T8 buffer (7 M Urea, 3% W/V CHAPS; 3-[(3-cholamidopropyl)dimethylammonio]-1-propanesulfonate, 20 mM DTT; dithiothreitol, 5 mM TCEP; tris(2-carboxyethyl)phosphine hydrochloride) and precipitated with 2-D clean-up kit (Amersham Biosciences) to remove substances interfering with isoelectric focusing (IEF) such as detergents, salts, lipids, phenolic and nucleic acids. IEF was carried out using IPTGhor IEF system (Amersham Biosciences) for the first dimension as recommended by the manufacturer. After first dimension, the strip was cut 5 cm from (+) terminal and 7 cm from (−) terminal. The cut strip was linked with agarose onto 12% SDS-PAGE containing 20 μg/ml dsDNA calf thymus DNA (Calbiochem). Markers and proteins were prepared according to the manufacturer's instructions on Whatman paper and run alongside the cut strip. After electrophoresis, the gel was rinsed with water, and placed into the gel incubation buffer (20 mM Tris-HCl, pH 9.08, 20 mM MgCl2). Two hours later, the gel was rinsed again and incubated in the gel incubation buffer overnight at 37° C. […] Trypsin fragmentation results were analyzed using Mascot software (Matrix Science) for peptide identification. […]

[2] = test system: calf thymus ssDNA; test: Assay of nuclease activity, substrate specificity: ssDNA; conditions: no metal ion added
Protocol: (§1) Standard (20 μl) reaction mixture contained 2 μg of calf thymus dsDNA in activity buffer (20 mM Tris-HCl, 20 mM MgCl2 at pH 7.24). When required, several concentrations of alternative divalent cations, BaCl2, CaCl2, NaCl, MnSO4, NiSO4, MgCl2, CoCl2, KCl, were tested and the effects of other compounds (0.1, 0.25, 0.5 and 1 mg/ml BSA, 0.05, 0.1, 0.5 and 1 mM dNTPs, 2, 5, 10, 20, 50, 100 mM EDTA, 5, 15, 30, 50% glycerol, 0.1, 0.25, 0.5 and 1% SDS, and 1, 2, 3, 4, 5, 6, 7 and 8 M urea) were investigated. […] In all cases, the reaction was started by the addition of 2 μl of nickel column purified enzyme, and terminated by adding 4 μl of agarose gel loading buffer (0.1 M EDTA, pH 8.0, 0.05% bromophenol blue, 50% glycerol). Nuclease activity was evaluated by assessing DNA degradation level on gel electrophoresis (1.2% agarose, with 0.25 μg/ml of ethidium bromide, at 170 V for 30 min, in Tris-borate EDTA buffer).

[3] = test system: plasmid DNA pET-24a(+) (closed circular double stranded); test: Assay of nuclease activity, substrate specificity: plasmid DNA; conditions: no metal ion added
Protocol: as §1

[4] = test system: calf thymus dsDNA; test: Assay of nuclease activity, DNA degradation level on agarose gel
Protocol: as §1

[5] = digestion of calf thymus dsDNA at 37° C.

B1: Nucyep: thermostable non-specific nuclease from Yersinia enterocolitica subsp. palearctica; 283-amino-acid protein, SEQ ID NO. 6 (protein)
chain: MKFNLIKLLPVLLLTACTTTDHSMSAPKTILSAPTVTEQNLPAAAIDNCLVGCPTGGSDQTVIRDVYTLNNNSHTKFANWVAYKVTKSSQASNHPRKWAQDPDLPDSDTLAPADYTGANQKLAVDRGHQAPLSLLAGNEDSQALNYLSNITPQKAALNQGAWVRLEDQERNLANRPDVTAVYSVTGPLFERHIATLPAKPTVEIPSGYWKIIFIGTSPDKGQYAAFLMDQNTAKSANFCDYQVNVDTIEAKTNPQLTIWSNLPADVAQIIKSQKGTLAQTIGCD
modifications: Yersinia enterocolitica sub. paleartica
- Isoelectric point of the spot with heat-stable nuclease activity [1]: about 5.2
- Nuclease activity on ssDNA without addition of metal ions [2]: able to degrade
- Nuclease activity on plasmid (circular ds) DNA without addition of metal ions [3]: but not the circular dsDNA or RNA
- Effect of 2 mM Ca2+ on nuclease activity ([4]; 2 mM Ca2+): inhibited
- Effect of 2 mM CuSO4 on nuclease activity ([4]; 2 mM CuSO4): inhibited
- Effect of 2 mM ZnCl2 on nuclease activity ([4]; 2 mM ZnCl2): inhibited
- Effect of 0.1% SDS on nuclease activity ([4]; 0.1% SDS): inhibited
- Effect of 100 mM EDTA on nuclease activity ([4]; EDTA 100 mM): inhibited
- Activity left after heating at 80° C. for 60 minutes (1 h) [4, 5]: ~5%
- Activity left after heating at 100° C. for 20 minutes [4, 5]: ~5%
- Optimum temperature ([4]; examined within 0 to 100° C.): about 35 °C
- Activity after exposure to longer times at 100° C. ([4]; longer than 20 minutes at 100° C., compared to undigested controls): no remaining nuclease activity
- Nuclease activity on dsDNA without addition of metal ions ([4]; no metal ion added, linear dsDNA): able to degrade
